In one data set the test system is biotinyl-Trp-oxazolone. Description: self-aminoacylation, catalytic enhancement (BWO) (fold over background); higher = more active; k-Seq, kA / k0A0; sequences stand for … in GGGAAUGGAUCCACAUCUACGAAUUC…UUCACUGCAGACUUGACGAAGCUG
Summed up:
(§1)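 Catalytic enhancement equals the median kA over the uncatalyzed rate, the latter read from the low-activity peak of a bimodal Gaussian fit. Values of kA came from fitting each sequence's fraction reacted to a pseudo-first-order model, with 1000 bootstraps. Reacted RNA was captured with streptavidin and quantified by triplicate qPCR and Illumina sequencing after 90 minutes at room temperature with 2–1250 μM biotinyl-aminoacyl-oxazolone and 0.43 μM mutagenized RNA pools bearing a 21-nt variable region.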

The test system of the next data set is biotinyl-Phe-oxazolone. The data set is described as follows: self-aminoacylation, catalytic enhancement (BFO) (fold over background); higher = more active; k-Seq, kA / k0A0; sequences stand for … in GGGAAUGGAUCCACAUCUACGAAUUC…UUCACUGCAGACUUGACGAAGCUG
Summed up: as §1

Another data set has as its system biotinyl-Val-oxazolone. The data set is described as follows: self-aminoacylation, catalytic enhancement (BVO) (fold over background); higher = more active; k-Seq, kA / k0A0; sequences stand for … in GGGAAUGGAUCCACAUCUACGAAUUC…UUCACUGCAGACUUGACGAAGCUG
Summed up: as §1

The subject of a further data set is biotinyl-Leu-oxazolone. Description: self-aminoacylation, catalytic enhancement (BLO) (fold over background); higher = more active; k-Seq, kA / k0A0; sequences stand for … in GGGAAUGGAUCCACAUCUACGAAUUC…UUCACUGCAGACUUGACGAAGCUG
In a few lines:
as §1

In a further data set the test system is biotinyl-Met-oxazolone. Description: self-aminoacylation, catalytic enhancement (BMO) (fold over background); higher = more active; k-Seq, kA / k0A0; sequences stand for … in GGGAAUGGAUCCACAUCUACGAAUUC…UUCACUGCAGACUUGACGAAGCUG
In a few lines: as §1

Another data set has as its system biotinyl-Ile-oxazolone. The data set is described as follows: self-aminoacylation, catalytic enhancement (BIO) (fold over background); higher = more active; k-Seq, kA / k0A0; sequences stand for … in GGGAAUGGAUCCACAUCUACGAAUUC…UUCACUGCAGACUUGACGAAGCUG
In a few lines:
as §1

Variants at the floor of the assay were thinned out.

Turning to “AUUGCCCUGGUCAUCGAGUGC [Fam2.1 aminoacylation ribozyme variant]”, the self-aminoacylation was found to be 4.08 with biotinyl-Trp-oxazolone; 11.6 with biotinyl-Phe-oxazolone; 2.32 in the data set on biotinyl-Val-oxazolone; 4.73 in the data set with biotinyl-Leu-oxazolone; 4.79 with biotinyl-Met-oxazolone.

For the sequence “AUCACCCUGGUCAUCGAGUGC [Fam2.1 aminoacylation ribozyme variant]”, the self-aminoacylation is 2.4 in the data set on biotinyl-Trp-oxazolone, 4.47 in the data set with biotinyl-Phe-oxazolone, 2.56 with biotinyl-Leu-oxazolone and 3.26 with biotinyl-Met-oxazolone.

In the case of “AUUCACUUAGAUCAUCGGGUG [Fam2.2 aminoacylation ribozyme variant]”, the self-aminoacylation in the data set with biotinyl-Trp-oxazolone was 2.82; in the data set with biotinyl-Phe-oxazolone, 10.8; with biotinyl-Leu-oxazolone it was 2.57; in the data set with biotinyl-Met-oxazolone, 2.14.

Take “AUCACCCUGGUCAUCGAGUUA [Fam2.1 aminoacylation ribozyme variant]”: the self-aminoacylation in the data set on biotinyl-Trp-oxazolone was 2.62; in the data set with biotinyl-Phe-oxazolone it was 4.31; with biotinyl-Leu-oxazolone it was 2.83; in the data set on biotinyl-Met-oxazolone, 2.93.

As for “AUUACCCUGGUUAUCAAGUGA [Fam2.1 aminoacylation ribozyme variant]”, the self-aminoacylation in the data set on biotinyl-Trp-oxazolone came to 3.4; in the data set with biotinyl-Phe-oxazolone, 4.14; with biotinyl-Leu-oxazolone it was 2.53; in the data set with biotinyl-Met-oxazolone it was 2.67.

Consider “CCCCACUUGAAGCAAUCGGUC [Fam1B.1 aminoacylation ribozyme variant]”, for which the self-aminoacylation in the data set with biotinyl-Trp-oxazolone is 2.12; in the data set on biotinyl-Val-oxazolone, 2.23.

“CCACACUUCAAGCAACCGCUC [Fam1B.1 aminoacylation ribozyme variant]”: the self-aminoacylation stood at 8.07 in the data set on biotinyl-Phe-oxazolone and 2.09 in the data set with biotinyl-Val-oxazolone.

Consider “AUUCACUUAGGUAAUCGGGUG [Fam2.2 aminoacylation ribozyme variant]”, for which the self-aminoacylation with biotinyl-Trp-oxazolone was 2.72; in the data set with biotinyl-Phe-oxazolone, 19.6; in the data set on biotinyl-Leu-oxazolone, 3.33; in the data set with biotinyl-Met-oxazolone, 3.11.

For “AUUCACCUAGUUCAUCGGGUG [Fam2.2 aminoacylation ribozyme variant]”, the self-aminoacylation is 2.49 in the data set with biotinyl-Trp-oxazolone; 12.9 in the data set with biotinyl-Phe-oxazolone; 2.15 with biotinyl-Val-oxazolone; 2.74 in the data set on biotinyl-Leu-oxazolone; 2.49 in the data set with biotinyl-Met-oxazolone.

For the sequence “CCACCCUUCAAGCAAUCGGCC [Fam1B.1 aminoacylation ribozyme variant]”, the self-aminoacylation in the data set on biotinyl-Trp-oxazolone came out at 3.11; in the data set on biotinyl-Phe-oxazolone it was 3.03; with biotinyl-Val-oxazolone, 2.39.

As to “AUUACCCUGGCCAACGAGUGA [Fam2.1 aminoacylation ribozyme variant]”, the self-aminoacylation in the data set on biotinyl-Trp-oxazolone is 5.43; in the data set with biotinyl-Phe-oxazolone, 21; in the data set with biotinyl-Leu-oxazolone, 3.31; in the data set with biotinyl-Met-oxazolone, 2.75.

In the case of “AUUACUCUGGUCAUCGAGUGG [Fam2.1 aminoacylation ribozyme variant]”, the figures for the self-aminoacylation in the data set on biotinyl-Leu-oxazolone and in the data set with biotinyl-Met-oxazolone were 2.42 and 2.16, respectively.

Turning to “AUUCACCUAUGUCAUUGGGUG [Fam2.2 aminoacylation ribozyme variant]”, the self-aminoacylation was found to be 2.13 with biotinyl-Trp-oxazolone, 9.21 in the data set on biotinyl-Phe-oxazolone, 2.34 in the data set with biotinyl-Leu-oxazolone and 2.03 with biotinyl-Met-oxazolone.

Turning to “CUUACCGUGGUCAUCGAGUGA [Fam2.1 aminoacylation ribozyme variant]”, the self-aminoacylation in the data set with biotinyl-Trp-oxazolone was found to be 3.87; in the data set on biotinyl-Phe-oxazolone, 10.3; in the data set with biotinyl-Val-oxazolone, 2.68; in the data set with biotinyl-Leu-oxazolone it was 2.59; in the data set on biotinyl-Met-oxazolone, 3.29.

As for “AUUAGCCUGCUCAUCGAGUGA [Fam2.1 aminoacylation ribozyme variant]”, the self-aminoacylation in the data set on biotinyl-Trp-oxazolone stood at 4.65; in the data set on biotinyl-Phe-oxazolone, 12.2; in the data set with biotinyl-Leu-oxazolone, 2.92; in the data set on biotinyl-Met-oxazolone, 3.42.

“CCACCCUUCAAGCAUUCGGUC [Fam1B.1 aminoacylation ribozyme variant]”: in the data set on biotinyl-Val-oxazolone, the self-aminoacylation was found to be 2.56.

As to “CCCCACUUCAAACAAUCGGUC [Fam1B.1 aminoacylation ribozyme variant]”, the self-aminoacylation in the data set on biotinyl-Trp-oxazolone stood at 61.2; with biotinyl-Phe-oxazolone it was 140; with biotinyl-Val-oxazolone, 2.15; with biotinyl-Leu-oxazolone, 2.83.

For “GCACACUUCAAACAAUCGGUC [Fam1B.1 aminoacylation ribozyme variant]”, the self-aminoacylation with biotinyl-Trp-oxazolone was 59; with biotinyl-Phe-oxazolone, 92.2; in the data set with biotinyl-Val-oxazolone, 2.19; with biotinyl-Leu-oxazolone it was 2.99; in the data set on biotinyl-Met-oxazolone it was 2.13.

With “AUUCACCUAGGUCAGCGGCUG [Fam2.2 aminoacylation ribozyme variant]”, the self-aminoacylation in the data set with biotinyl-Phe-oxazolone was found to be 8.56; with biotinyl-Leu-oxazolone, 3.16; with biotinyl-Met-oxazolone, 2.5.

With “AUUCACCUAGGACAACGGGUG [Fam2.2 aminoacylation ribozyme variant]”, the self-aminoacylation in the data set on biotinyl-Trp-oxazolone stood at 2.92; with biotinyl-Phe-oxazolone it was 25.7; with biotinyl-Leu-oxazolone, 3.72; in the data set with biotinyl-Met-oxazolone, 3.6.

In the case of “AUUACACUGGUCAUGGAGUGA [Fam2.1 aminoacylation ribozyme variant]”, the self-aminoacylation stood at 2.06 in the data set with biotinyl-Trp-oxazolone; 2.95 in the data set with biotinyl-Phe-oxazolone; 2 in the data set on biotinyl-Val-oxazolone; 2.48 in the data set with biotinyl-Leu-oxazolone; 2.63 with biotinyl-Met-oxazolone.

Regarding “AAGUUGGCUAACAGUCGCAAG [Fam3.1 aminoacylation ribozyme variant]”, the values for the self-aminoacylation in the data set on biotinyl-Trp-oxazolone, with biotinyl-Phe-oxazolone and in the data set with biotinyl-Ile-oxazolone were 2.26, 2.15 and 2.05, respectively.

“AUUCACCUAUUUCAUCGGGUG [Fam2.2 aminoacylation ribozyme variant]”: the self-aminoacylation in the data set with biotinyl-Trp-oxazolone was determined as 3.17; with biotinyl-Phe-oxazolone, 8.43; in the data set on biotinyl-Val-oxazolone, 2.02; in the data set on biotinyl-Leu-oxazolone, 3.49; in the data set with biotinyl-Met-oxazolone, 2.93.

With “AUUCCCCUGGUCAUCAAGUGA [Fam2.1 aminoacylation ribozyme variant]”, the self-aminoacylation was found to be 2.34 in the data set on biotinyl-Trp-oxazolone, 3.87 in the data set on biotinyl-Phe-oxazolone and 2.36 in the data set with biotinyl-Met-oxazolone.
